Measured values reported in US20130022590, “Compositions Comprising Zinc Finger Domains and Uses Therefor” (published 2013).

Columns and labels:
ZRANB2-F12 [1] = biological target: T1, ZRANB2-F12 (Homo sapiens, UniProt O95218 O95218:1-95); test: 15N-HSQC titration; settings: tags: GST removed for FA, gel shift and SPR; label: 5'-fluorescein
Method: In brief, F2 and F12 were dialysed into 25 mM potassium phosphate (pH 7.0), 25 mM NaCl, and 0.5 mM DTT and concentrated to 0.4-1 mM. All spectra were recorded on a Bruker Avance 600 spectrometer equipped with a cryoprobe. 1H, 15N, and 13C assignments were obtained from HNCACB, CB-CA(CO)NH, HCCH-TOCSY, NOESY, and TOCSY spectra acquired at 2° C., 5° C., or 25° C. Dihedral angle restraints were obtained by analysis of an HNHA spectrum as previously described in Vuister G. W. and Bax A. 1993 J Am Chem Soc 115: 7772-7777. NMR data were processed by using XWINNMR/Topspin (Bruker) and analyzed with SPARKY (T. D. Goddard and D. G. Kneller, University of California, San Francisco). The structure of F2 was calculated from NOE and Ø angle constraints (e.g., FIGS. 5 and 9C) by using a protocol as described in Plambeck C. A., et al., 2003 J Biol Chem 278: 22805-22811.
¹⁵N-HSQC titrations were also carried out by using the double finger construct (F12; residues 1-95) and the double site oligonucleotide. AGGUAAAGGUAA (SEQ ID NO: 26). […] This titration (FIG. 9D) gave rise to the same pattern of chemical-shift changes as the two single-finger experiments. Only 3-4 new signals appeared, most likely from linker residues.

ZRANB2-F2 = biological target: T2, ZRANB2-F2 (Homo sapiens, UniProt O95218 O95218:65-95); test: FP; GST-F2; 10 mM Tris pH 8.0, 50 mM KCl, 5 mM MgCl2, heparin, 25 C; settings: tags: GST fusion (FA); label: 5'-fluorescein (FA) or 32P (gel shift)
T2 chain: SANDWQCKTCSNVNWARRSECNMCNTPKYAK
Method: (§1) Fluorescence Anisotropy titrations e.g., as shown in FIGS. 1D-F, 8 and 35, were carried out using standard protocols. In brief, 5′-Fluorescein-labeled RNA oligonucleotides were quantified by A₂₆₀, correcting for fluorescein absorbance by using A₄₉₃. For single-site experiments, the sequence […] (SEQ ID NO: 28), or single base mutants thereof, was used. For double-site experiments, two AGGUAA sites were separated by different length sequences as indicated, and the total oligonucleotide lengths were kept constant by the symmetrical addition of adenines to each end. The anisotropy titrations were performed with a starting RNA concentration of 50 nM in a buffer comprising either 10 mM Tris (pH 8.0), 50 mM KCl, 5 mM MgCl₂, 0.05 mg/mL heparin, and 1 mM DTT (for GST fusion constructs) or 10 mM Mops (pH 7.3), 50 mM NaCl, 0.05 mg/mL heparin, and 1 mM DTT (for ZRANB2-F12). RNasin (Promega) was also added to the protein solution to a concentration of 2 units/μL. Protein was titrated into this starting solution and anisotropy values measured on a Cary Eclipse fluorescence spectrophotometer fitted with manual polarizer and long-pass filters set to 475 and 515 nm for excitation and emission, respectively. […] Association constants were determined by nonlinear least squares regression analysis using a 1:1 binding model.

ZRANB2-F1 = biological target: T3, ZRANB2-F1 (Homo sapiens, UniProt O95218 O95218:1-45); test: FP; GST-F1; 10 mM Tris pH 8.0, 50 mM KCl, 5 mM MgCl2, heparin, 25 C; settings: tags: GST fusion; label: 5'-fluorescein (FA) or 32P (gel shift)
T3 chain: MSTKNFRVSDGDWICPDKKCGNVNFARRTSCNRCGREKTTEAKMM
Method: as §1, with “The anisotropy titrations were performed with a starting RNA concentration of 50 nM in a buffer comprising either 10 mM Tris (pH 8.0), 50 mM KCl, 5 mM MgCl₂, 0.05 mg/mL heparin, and 1 mM DTT (for GST fusion constructs) or 10 mM Mops (pH 7.3), 50 mM NaCl, 0.05 mg/mL heparin, and 1 mM DTT (for ZRANB2-F12). RNasin (Promega) was also added to the protein solution to a concentration of 2 units/μL.” left out
Constructs of the two individual domains, F1 (FIG. 2, residues 1-45) and F2 (FIG. 2, residues 65-95), were cloned expressed and purified as GST fusions described in section 1.2 above, and tested their ability to bind ssRNA by fluorescence anisotropy as described in section 1.5 above, using a ssRNA oligonucleotide bearing a 5′ fluorescein tag and containing a single AGGUAA site.

ZRANB2-F12 [2] = biological target: T1, ZRANB2-F12; test: EMSA; 10 mM Mops pH 7.2, 50 mM KCl, 5 mM MgCl2, heparin, 4 C; settings: tags: GST removed for FA, gel shift and SPR; label: 5'-fluorescein (FA) or 32P (gel shift)
Method: (§2) Gel Shift assays e.g., FIGS. 1B, 32A, were carried out using standard protocols. In brief, oligonucleotides were 5′ end-labelled with T4 polynucleotide kinase and annealed. Binding reactions were set up in a volume of 30 μL and contained a constant concentration of ³²P-labeled probe (0.1 pmol) and increasing concentrations of F12, in a buffer consisting of 10 mM Mops (pH 7.2), 50 mM KCl, 5 mM MgCl₂, 1 mM DTT, 0.03 mg/mL heparin, and 5% glycerol. Binding reactions were set up on ice and incubated at 4° C. for 30 min, after which time 15 μL of each sample was loaded onto a prerun 8% native polyacrylamide gel made up in 0.5× Tris-borate buffer, and electrophoresed (250V, 1 h, 4° C.). The oligonucleotide sequence used for gel shift experiments was […] (SEQ ID NO: 28); the site was mutated by changing the central GGU to CUG.
(§3) To determine whether the AGGUAA motif was sufficient for binding, the binding of the double finger construct F12 to a 17-nt RNA oligonucleotide containing a single AGGUAA motif was tested as described in Section 1.4 above with dsDNA, ssDNA, and dsRNA also tested as controls. […] Mutation of the central GGU, which is the most highly-conserved element in the SELEX consensus to CUG, abrogated the interaction, showing that the interaction is sequence specific (FIG. 1B).

ZRANB2-F2 T73A = biological target: T4, ZRANB2-F2 T73A (Homo sapiens, UniProt O95218 O95218:65-95, T73A); test: FP; much smaller change in affinity; settings: label: 5'-fluorescein (FA) or 32P (gel shift)
T4 chain: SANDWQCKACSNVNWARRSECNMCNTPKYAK
Method: as §1, with “model. […]” for “model.”

ZRANB2-F2 K72A = biological target: T5, ZRANB2-F2 K72A (Homo sapiens, UniProt O95218 O95218:65-95, K72A); test: FP; much smaller change in affinity; settings: label: 5'-fluorescein (FA) or 32P (gel shift)
T5 chain: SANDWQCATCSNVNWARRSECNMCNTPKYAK
Method: as §1, with “model. […]” for “model.”

ZRANB2-F2 R82Q [3] = biological target: T6, ZRANB2-F2 R82Q (Homo sapiens, UniProt O95218 O95218:65-95, R82Q); test: FP; settings: label: 5'-fluorescein (FA) or 32P (gel shift)
T6 chain: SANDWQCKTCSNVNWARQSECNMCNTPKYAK
Method: as §1, with “The anisotropy titrations were performed with a starting RNA concentration of 50 nM in a buffer comprising either 10 mM Tris (pH 8.0), 50 mM KCl, 5 mM MgCl₂, 0.05 mg/mL heparin, and 1 mM DTT (for GST fusion constructs) or 10 mM Mops (pH 7.3), 50 mM NaCl, 0.05 mg/mL heparin, and 1 mM DTT (for ZRANB2-F12). RNasin (Promega) was also added to the protein solution to a concentration of 2 units/μL.” left out
(§4) To determine whether changing arginine-82 (R82) would affect the binding preference of ZRANB2-F2 from GGU to GAU, the point mutation R82Q in ZNF 2 of ZRANB2 was made and the ability of both the wild type (W) protein and the R82Q mutant to bind to AGGUAA and AGAUAA was assessed by fluorescence anisotropy binding assays as described previously in Example 1.

ZRANB2-F12 [4] = biological target: T1, ZRANB2-F12; test: SPR; immobilised RNA; 750 nM F12; 10 mM phosphate pH 7.2, 50 mM NaCl, 25 C; settings: tags: GST removed for FA, gel shift and SPR; label: 5'-biotin
Method: (§5) Competition binding experiments were carried out by flowing a solution of F12 over a streptavidin chip coated with a biotinylated ssRNA oligonucleotide (containing the sequence AGGUAA) in the presence of an unlabeled competitor oligonucleotide.
(§6) Binding experiments were performed in triplicate at 25° C. on a BIACORE 3000 (Biacore). A 5′ biotin-labeled RNA oligonucleotide containing the 5′ splice site from exon 3 of the Tra2β minigene ([…]; SEQ ID NO: 29) was purified by size exclusion chromatography (Superdex 75), and unlabeled competitor oligonucleotides i.e., […] from exon 1 (SEQ ID NO: 30), […] from exon 2 (SEQ ID NO: 31), and […] from exon 3 (SEQ ID NO: 32) were used without further purification. Protein and RNA samples were dialysed into 10 mM sodium phosphate (pH 7.2), 50 mM NaCl, 1 mM DTT, and 0.005% NP20 and filtered. The biotinylated RNA was heated to 65° C. for 5 min, cooled on ice, and then immobilized onto a streptavidin-coated sensor chip to a total of approximately 160 relative units. Solutions of 750 nM F12 in the presence of 1 molar equivalent of each competitor RNA were injected in random order over the sensor chip (at a flow rate of 20 μL/min for 120 sec) and allowed to undergo a 120-sec dissociation time; a further 300-sec interval was allowed between injections. Data were analyzed by using BIA Evaluation software (Biacore).

ZRANB2-F12 [5] = biological target: T1, ZRANB2-F12; test: competition; strongest competitor in SPR competition; settings: tags: GST removed for FA, gel shift and SPR
Method: as §5
as §6, with “software (Biacore). […]” for “software (Biacore).”

ZRANB2-F2 R82Q [6] = biological target: T6, ZRANB2-F2 R82Q; test: FP; no preference between G and A at position 3; settings: label: 5'-fluorescein
Method: as §1, with “The anisotropy titrations were performed with a starting RNA concentration of 50 nM in a buffer comprising either 10 mM Tris (pH 8.0), 50 mM KCl, 5 mM MgCl₂, 0.05 mg/mL heparin, and 1 mM DTT (for GST fusion constructs) or 10 mM Mops (pH 7.3), 50 mM NaCl, 0.05 mg/mL heparin, and 1 mM DTT (for ZRANB2-F12). RNasin (Promega) was also added to the protein solution to a concentration of 2 units/μL.” left out
as §4

ZRANB2-F2 (untagged) = biological target: T7, ZRANB2-F2 (untagged) (Homo sapiens, UniProt O95218 O95218:65-95); test: 15N-HSQC titration, 1:1 complex
T7 chain: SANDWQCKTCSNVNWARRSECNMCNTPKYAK
Method: For RNA titrations, deprotected RNA oligonucleotides i.e., having the sequence AGGUAA, […] (SEQ ID NO: 25), or […] (SEQ ID NO: 26) and the appropriate protein were dialyzed into 10 mM Mops (pH 7.2) and 0.5 mM DTT. Protein and RNA concentrations were calculated from A₂₈₀ and A₂₆₀, respectively. Final concentrations of complexes after titrations were typically approximately 0.1-0.5 mM. Assignments of the F2:RNA complex (1:1 or 1:1.2 molar ratio) were made at 25° C. as described above.
The inventors then carried out chemical-shift perturbation experiments, titrating short (6 or 10 nt) RNA oligonucleotides containing a single AGGUAA motif into ¹⁵N-labeled F2.

ZRANB2-F12 [7] = biological target: T1, ZRANB2-F12; test: EMSA; dsRNA control; settings: tags: GST removed for FA, gel shift and SPR; label: 32P
Method: as §2, §3

ZRANB2-F12 [8] = biological target: T1, ZRANB2-F12; test: EMSA; dsDNA control; settings: tags: GST removed for FA, gel shift and SPR; label: 32P
Method: as §2, §3

ZRANB2-F12 [9] = biological target: T1, ZRANB2-F12; test: EMSA; interaction abrogated; settings: tags: GST removed for FA, gel shift and SPR; label: 32P
Method: as §2, §3

ZRANB2-F12 [10] = biological target: T1, ZRANB2-F12; test: FP; higher affinity than shorter spacings; value in figure only; settings: tags: GST removed for FA, gel shift and SPR; label: 5'-fluorescein
Method: as §1, with “The anisotropy titrations were performed with a starting RNA concentration of 50 nM in a buffer comprising either 10 mM Tris (pH 8.0), 50 mM KCl, 5 mM MgCl₂, 0.05 mg/mL heparin, and 1 mM DTT (for GST fusion constructs) or 10 mM Mops (pH 7.3), 50 mM NaCl, 0.05 mg/mL heparin, and 1 mM DTT (for ZRANB2-F12). RNasin (Promega) was also added to the protein solution to a concentration of 2 units/μL.” left out
The importance of the spacing between AGGUAA motifs was assessed by measuring binding of F12 to double sites that were separated by −1 to 8 nt (where −1 denotes the sequence […] SEQ ID NO: 33; FIG. 1E, lanes 5-10).

AGGUAAAGGUAA (ssRNA) [double site AGGUAAAGGUAA]: binds (ZRANB2-F12 [1]).

GCAACCAGGUAAAGUCU (ssRNA) [17-nt AGGUAA ssRNA] was tested, and the Ka (ZRANB2-F2) was 1e+06 M⁻¹, the Ka (ZRANB2-F1) was 3e+06 M⁻¹ and the binding result (ZRANB2-F12 [2]) was “binds”. For the same binder, the binding result (ZRANB2-F2 T73A) was “binds”, the binding result (ZRANB2-F2 K72A) was “binds” and the binding signal (ZRANB2-F2 R82Q [3]) was roughly 2 fold lower than WT F2.

CUCUGAAUCUAGGUAAGAAAG (ssRNA) [Tra2-beta exon 3 5' splice site]: binds (ZRANB2-F12 [4]).

CUCUGAAUCUAGGUAAGAAAG (ssRNA) [Tra2-beta exon 3 5' splice site competitor]: binds (ZRANB2-F12 [5]).

With AGAUAA (ssRNA) [AGAUAA (3A)] the binding signal (ZRANB2-F2 R82Q [6]) was ~2 fold higher than WT F2 on same RNA.

CCAGGUAAAG (ssRNA) [10-nt AGGUAA RNA]: binds (ZRANB2-F2 (untagged)).

B1: 17-nt site as dsRNA (dsRNA)
RNA 1: GCAACCAGGUAAAGUCU
RNA 2: AGACUUUACCUGGUUGC
B1: no binding (ZRANB2-F12 [7]).

B2: 17-nt site as dsDNA (dsDNA)
DNA 1: GCAACCAGGTAAAGTCT
DNA 2: AGACTTTACCTGGTTGC
modifications: [none]
B2: no binding (ZRANB2-F12 [8]).

GCAACCACUGAAAGUCU (ssRNA, [none]) [17-nt CUG mutant ssRNA]: no binding (ZRANB2-F12 [9]).

AGGUAAAAAAAAGGUAA (ssRNA, [none]) [double site spacing 5 (penta-adenine)]: binds (ZRANB2-F12 [10]).
